Where no end group is shown, it is not given here. [ ]: non-standard residue; d: D form. The star is where a group is joined. Biotin = O=C1N[C@H]2[C@H](CS[C@H]2CCCCC(=O)*)N1; pT = C[C@@H](OP(=O)(O)O)[C@H](N)C(=O)O Where only a bound is given, the exact number is not on record here.

B1: GF14εN211G (natural protein, Arabidopsis, UniProt P48347 1-254, looked up)
chain: MENEREKQVYLAKLSEQTERYDEMVEAMKKVAQLDVELTVEERNLVSVGYKNVIGARRASWRILSSIEQKEESKGNDENVKRLKNYRKRVEDELAKVCNDILSVIDKHLIPSSNAVESTVFFYKMKGDYYRYLAEFSSGAERKEAADQSLEAYKAAVAAAENGLAPTHPVRLGLALNFSVFYYEILNSPESACQLAKQAFDDAIAELDSLGEESYKDSTLIMQLLRDNLTLWTSDLNEEGDERTKGADEPQDEN
modifications: 32P-phosphate on the phosphorylation site at the junction between GST and the cloned protein (bead binding assay)
notes: GF14 epsilon, Arabidopsis, At1g22300, Asn211 changed into Gly; also called GF14ε loop 8 mutant; source: E. coli BL21(DE3), GST fusion (pGEX-2TK)
B2: bL15Vp peptide (peptide)
peptide: Biotin-LKGLDIDTIQQNY[pT]V
notes: last 15 amino acids of the maize plasma membrane H+-ATPase isoform 2 (MHA2); also called phosphorylated biotinyl-peptide reproducing the last 15 residues of the MHA2 H+-ATPase; source: synthetic peptide (Neosystem, Strasbourg)

Holding throughout (conditions): both partners purified
The target in test [1] is B2. The test is described as follows: pull-down; bL15Vp on streptavidin-agarose magnetic beads; 0.1 nmol 32P-labeled GF14 wild type or loop 8 mutant in buffer HT with 5 mM Mg2+; FC not told for this experiment.
In test [2] the target is T1, GF14λ (Arabidopsis, UniProt P48349 1-248, 32P-phosphate on the phosphorylation site at the junction between GST and the cloned protein (overlay and bead binding assays)).
T1 construct: 14-3-3 protein GF14 lambda, Arabidopsis, At5g10450; cDNA by RT-PCR with primers corresponding to the coding region; also called GF14 lambda; GST-GF14λ
T1 sequence (looked up): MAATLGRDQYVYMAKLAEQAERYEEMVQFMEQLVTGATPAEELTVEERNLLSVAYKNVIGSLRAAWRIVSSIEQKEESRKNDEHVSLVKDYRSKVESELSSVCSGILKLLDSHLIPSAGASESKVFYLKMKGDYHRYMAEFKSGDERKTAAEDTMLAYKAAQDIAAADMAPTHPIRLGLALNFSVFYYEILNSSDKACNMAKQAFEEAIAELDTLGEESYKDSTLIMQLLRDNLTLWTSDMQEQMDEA
The test is described as follows: pull-down; 0.05 nmol bL15Vp on streptavidin-agarose magnetic beads; 0.1 nmol 32P-labeled GF14 in 50 µl buffer HT, 60 min, room temperature; without FC; bound radioactivity counted.

Test [3] addresses T2, GF14κ (Arabidopsis, UniProt P48348 1-248, 32P-phosphate on the phosphorylation site at the junction between GST and the cloned protein (overlay and bead binding assays)).
T2 construct: 14-3-3 protein GF14 kappa, Arabidopsis, At5g65430; cDNA by RT-PCR with primers corresponding to the coding region; also called GF14 kappa; GST-GF14κ
T2 sequence (looked up): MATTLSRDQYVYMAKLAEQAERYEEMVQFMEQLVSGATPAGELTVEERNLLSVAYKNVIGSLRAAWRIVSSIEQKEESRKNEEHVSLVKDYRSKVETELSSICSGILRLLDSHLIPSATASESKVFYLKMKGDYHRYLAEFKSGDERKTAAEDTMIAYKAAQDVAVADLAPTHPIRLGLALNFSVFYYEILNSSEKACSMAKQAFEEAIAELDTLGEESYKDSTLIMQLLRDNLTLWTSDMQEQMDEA
The test is described as above.

In test [4] the target is T3, GF14χ (Arabidopsis, UniProt P42643 1-267, 32P-phosphate on the phosphorylation site at the junction between GST and the cloned protein (overlay and bead binding assays)).
T3 construct: 14-3-3 protein GF14 chi, Arabidopsis, At4g09000; cDNA by RT-PCR with primers corresponding to the coding region; also called GF14 chi; GST-GF14χ
T3 sequence (looked up): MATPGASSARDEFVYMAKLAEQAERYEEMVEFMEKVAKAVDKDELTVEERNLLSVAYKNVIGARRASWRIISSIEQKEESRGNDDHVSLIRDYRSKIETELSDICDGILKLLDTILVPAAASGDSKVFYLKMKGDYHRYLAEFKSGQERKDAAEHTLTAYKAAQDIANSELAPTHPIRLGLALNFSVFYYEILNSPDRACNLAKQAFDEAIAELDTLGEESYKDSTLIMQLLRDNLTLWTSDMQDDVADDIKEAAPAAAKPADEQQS
The description is as above.

The target in test [5] is B1. The test is described as follows: pull-down; bL15Vp on streptavidin-agarose magnetic beads; 0.1 nmol 32P-labeled GF14 wild type or loop 8 mutant in buffer HT without Mg2+; FC not told for this experiment.
Test [6] deals with T4, GF14ωG213N (Arabidopsis, UniProt Q01525 1-259, G213N, 32P-phosphate on the phosphorylation site at the junction between GST and the cloned protein (bead binding assay)).
T4 construct: GF14 omega, Arabidopsis, At1g78300, Gly213 changed into Asn; also called GF14ω loop 8 mutant; source: E. coli BL21(DE3), GST fusion (pGEX-2TK)
T4 sequence (looked up): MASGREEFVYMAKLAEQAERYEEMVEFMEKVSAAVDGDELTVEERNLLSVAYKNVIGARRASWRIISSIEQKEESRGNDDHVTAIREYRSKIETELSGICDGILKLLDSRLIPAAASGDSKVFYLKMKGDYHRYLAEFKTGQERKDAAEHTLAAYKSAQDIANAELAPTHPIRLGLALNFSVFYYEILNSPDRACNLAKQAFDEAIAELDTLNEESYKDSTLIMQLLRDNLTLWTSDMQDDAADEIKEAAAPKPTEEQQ
Kind of test: pull-down; bL15Vp on streptavidin-agarose magnetic beads; 0.1 nmol 32P-labeled GF14 wild type or loop 8 mutant in buffer HT with 5 mM Mg2+; FC not told for this experiment.

For B1, in test [1], the “fold more protein bound with 5 mM Mg2+ (reference not clear: wild type GF14ε or the mutant without Mg2+)” value is over 5 fold.
With B2, the binding result in test [2], in test [3], in test [4], in test [5] and in test [6] was “binds” each time.
